Test results: the supplement of paper PMC9112550, “Optimization of the antimicrobial peptide Bac7 by deep mutational scanning” (BMC Biology, 2022)

test system: Escherichia coli TOP10; experiment: shrunken log2 fold change of peptide-encoding DNA abundance (4.5 h post-induction vs induction); higher = less antimicrobial activity (less host growth inhibition); conditions: time post-induction: 4.5 h; library: site-saturation at positions 5, 18, 19, 20
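Further: peptides expressed intracellularly from a pBAD plasmid library in pooled LB shake-flask culture, induced with 0.3% L-arabinose, DNA abundance read by NGS, three biological replicates, DESeq2 with apeglm shrinkage.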

RRIRERPPRLPRPRPRPNEVPRP and RRIRWRPPRLPRPRPRPEELPRP are within 0.2 log units of each other in “shrunken log2 fold change” value: 0.0321 for the first, -0.00088 for the second.

Compared with RRIRSRPPRLPRPRPRPLAGPRP, RRIRHRPPRLPRPRPRPNDIPRP is lower in “shrunken log2 fold change” value: 0.225 for the first, -0.0322 for the second.

First: RRIRNRPPRLPRPRPRPYWYPRP
Second: RRIRPRPPRLPRPRPRPADDPRP
The “shrunken log2 fold change” value of the first is lower: -0.177 for the first, 0.118 for the second.

Compared with RRIRTRPPRLPRPRPRPNWPPRP, RRIRDRPPRLPRPRPRPHIFPRP is lower in “shrunken log2 fold change” value: -0.0423 for the first, -0.361 for the second.

First: RRIRHRPPRLPRPRPRPTNMPRP
Second: RRIRCRPPRLPRPRPRPADWPRP
The “shrunken log2 fold change” value of the first is higher: 1.96 for the first, 0.29 for the second.

RRIRKRPPRLPRPRPRPSRLPRP and RRIRQRPPRLPRPRPRPEPHPRP are within 0.2 log units of each other in “shrunken log2 fold change” value: 0.111 for the first, 0.0864 for the second.

First: RRIRPRPPRLPRPRPRPRHLPRP
Second: RRIRGRPPRLPRPRPRPDVCPRP
The “shrunken log2 fold change” value of the first is lower: -0.0836 for the first, 0.181 for the second.

RRIRDRPPRLPRPRPRPNHRPRP and RRIRHRPPRLPRPRPRPVHVPRP are within 0.2 log units of each other in “shrunken log2 fold change” value: -0.346 for the first, -0.16 for the second.

RRIRERPPRLPRPRPRPDIKPRP and RRIRVRPPRLPRPRPRPCTKPRP are within 0.2 log units of each other in “shrunken log2 fold change” value: -0.248 for the first, -0.275 for the second.

Going from RRIRERPPRLPRPRPRPCMPPRP to RRIRQRPPRLPRPRPRPQAGPRP, the “shrunken log2 fold change” value falls from 0.0888 to -0.158.

Going from RRIRPRPPRLPRPRPRPPMVPRP to RRIRARPPRLPRPRPRPAEQPRP, the “shrunken log2 fold change” value rises from 0.0188 to 0.728.

Compared with RRIRQRPPRLPRPRPRPPNIPRP, RRIRERPPRLPRPRPRPKAKPRP is higher in “shrunken log2 fold change” value: -0.3 for the first, -0.0257 for the second.

RRIRQRPPRLPRPRPRPCDAPRP and RRIRFRPPRLPRPRPRPMVGPRP are within 0.2 log units of each other in “shrunken log2 fold change” value: -0.027 for the first, -0.225 for the second.

Going from RRIRNRPPRLPRPRPRPVESPRP to RRIRVRPPRLPRPRPRPTIFPRP, the “shrunken log2 fold change” value falls from -0.165 to -0.469.

Compared with RRIRPRPPRLPRPRPRPGKRPRP, RRIRWRPPRLPRPRPRPMPEPRP is lower in “shrunken log2 fold change” value: 0.389 for the first, -0.236 for the second.

Going from RRIRIRPPRLPRPRPRPYTEPRP to RRIRQRPPRLPRPRPRPICGPRP, the “shrunken log2 fold change” value rises from -0.512 to -0.0167.

Going from RRIRFRPPRLPRPRPRPELTPRP to RRIRNRPPRLPRPRPRPTRSPRP, the “shrunken log2 fold change” value falls from 0.136 to -0.177.

Going from RRIRYRPPRLPRPRPRPMCMPRP to RRIRQRPPRLPRPRPRPWYRPRP, the “shrunken log2 fold change” value falls from -0.214 to -0.49.

Going from RRIRTRPPRLPRPRPRPGRCPRP to RRIRGRPPRLPRPRPRPPFDPRP, the “shrunken log2 fold change” value rises from 0.178 to 0.835.

RRIRARPPRLPRPRPRPWEEPRP and RRIRSRPPRLPRPRPRPMVQPRP are within 0.2 log units of each other in “shrunken log2 fold change” value: 0.271 for the first, 0.13 for the second.

First: RRIRFRPPRLPRPRPRPNTAPRP
Second: RRIRERPPRLPRPRPRPPYNPRP
The “shrunken log2 fold change” value of the first is lower: -0.986 for the first, -0.728 for the second.

RRIRYRPPRLPRPRPRPQYVPRP and RRIRPRPPRLPRPRPRPVQLPRP are within 0.2 log units of each other in “shrunken log2 fold change” value: -0.0294 for the first, -0.135 for the second.

First: RRIRSRPPRLPRPRPRPNCFPRP
Second: RRIRFRPPRLPRPRPRPVRKPRP
The “shrunken log2 fold change” value of the first is higher: 0.0876 for the first, -0.355 for the second.

First: RRIRGRPPRLPRPRPRPKAHPRP
Second: RRIRKRPPRLPRPRPRPVCRPRP
The “shrunken log2 fold change” value of the first is higher: 0.625 for the first, 0.245 for the second.

RRIRDRPPRLPRPRPRPYTMPRP and RRIRSRPPRLPRPRPRPDIDPRP are within 0.2 log units of each other in “shrunken log2 fold change” value: -0.0014 for the first, -0.15 for the second.
